Source: IntAct's records for PubMed 11641419

B1: Prolactin-releasing peptide receptor (Homo sapiens), P49683 (parent)
chain: MASSTTRGPRVSDLFSGLPPAVTTPANQSAEASAGNGSVAGADAPAVTPFQSLQLVHQLKGLIVLLYSVVVVVGLVGNCLLVLVIARVRRLHNVTNFLIGNLALSDVLMCTACVPLTLAYAFEPRGWVFGGGLCHLVFFLQPVTVYVSVFTLTTIAVDRYVVLVHPLRRRISLRLSAYAVLAIWALSAVLALPAAVHTYHVELKPHDVRLCEEFWGSQERQRQLYAWGLLLVTYLLPLLVILLSYVRVSVKLRNRVVPGCVTQSQADWDRARRRRTFCLLVVIVVVFAVCWLPLHVFNLLRDLDPHAIDPYAFGLVQLLCHWLAMSSACYNPFIYAWLHDSFREELRKLLVAWPRKIAPHGQNMTVSVVI

Variants of: B1
Settings: with grip1_human GRIP1, Q9Y3R0
Chain of grip1_human GRIP1, Q9Y3R0 (Q9Y3R0 whole entry): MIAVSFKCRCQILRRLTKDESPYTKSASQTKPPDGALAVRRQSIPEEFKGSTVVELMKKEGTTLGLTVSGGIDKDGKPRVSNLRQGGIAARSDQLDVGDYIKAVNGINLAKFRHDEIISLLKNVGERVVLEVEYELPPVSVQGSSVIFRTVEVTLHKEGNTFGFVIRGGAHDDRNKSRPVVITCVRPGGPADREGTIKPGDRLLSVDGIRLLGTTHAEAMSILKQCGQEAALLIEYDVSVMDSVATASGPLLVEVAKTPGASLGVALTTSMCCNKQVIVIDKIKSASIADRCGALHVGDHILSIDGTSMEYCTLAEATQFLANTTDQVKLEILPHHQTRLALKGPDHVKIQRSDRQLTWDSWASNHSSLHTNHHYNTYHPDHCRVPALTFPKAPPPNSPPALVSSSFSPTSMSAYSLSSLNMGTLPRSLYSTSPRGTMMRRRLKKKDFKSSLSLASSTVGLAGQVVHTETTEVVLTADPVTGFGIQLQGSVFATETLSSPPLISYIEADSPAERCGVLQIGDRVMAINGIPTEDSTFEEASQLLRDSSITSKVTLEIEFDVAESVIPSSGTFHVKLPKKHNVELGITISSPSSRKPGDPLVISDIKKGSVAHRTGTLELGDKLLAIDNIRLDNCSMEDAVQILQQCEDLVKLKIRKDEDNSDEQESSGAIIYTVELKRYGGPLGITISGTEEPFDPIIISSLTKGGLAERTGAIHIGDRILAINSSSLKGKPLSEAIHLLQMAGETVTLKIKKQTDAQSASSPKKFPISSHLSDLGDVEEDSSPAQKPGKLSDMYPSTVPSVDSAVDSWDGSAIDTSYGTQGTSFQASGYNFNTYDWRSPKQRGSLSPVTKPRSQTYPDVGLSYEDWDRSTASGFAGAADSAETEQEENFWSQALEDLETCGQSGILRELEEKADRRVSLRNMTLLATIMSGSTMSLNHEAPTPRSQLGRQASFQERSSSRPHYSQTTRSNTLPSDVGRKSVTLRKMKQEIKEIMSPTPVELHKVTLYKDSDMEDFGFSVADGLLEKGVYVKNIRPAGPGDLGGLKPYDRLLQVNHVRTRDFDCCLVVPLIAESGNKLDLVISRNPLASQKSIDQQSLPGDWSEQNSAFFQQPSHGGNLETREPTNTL

effect of a mutation on the interaction | Variant
disrupting interaction | MASSTTRGPRVSDLFSGLPPAVTTPANQSAEASAGNGSVAGADAPAVTPFQSLQLVHQLKGLIVLLYSVVVVVGLVGNCLLVLVIARVRRLHNVTNFLIGNLALSDVLMCTACVPLTLAYAFEPRGWVFGGGLCHLVFFLQPVTVYVSVFTLTTIAVDRYVVLVHPLRRRISLRLSAYAVLAIWALSAVLALPAAVHTYHVELKPHDVRLCEEFWGSQERQRQLYAWGLLLVTYLLPLLVILLSYVRVSVKLRNRVVPGCVTQSQADWDRARRRRTFCLLVVIVVVFAVCWLPLHVFNLLRDLDPHAIDPYAFGLVQLLCHWLAMSSACYNPFIYAWLHDSFREELRKLLVAWPRKIAPHGQNMTVSAVI [V368A]
disrupting interaction | MASSTTRGPRVSDLFSGLPPAVTTPANQSAEASAGNGSVAGADAPAVTPFQSLQLVHQLKGLIVLLYSVVVVVGLVGNCLLVLVIARVRRLHNVTNFLIGNLALSDVLMCTACVPLTLAYAFEPRGWVFGGGLCHLVFFLQPVTVYVSVFTLTTIAVDRYVVLVHPLRRRISLRLSAYAVLAIWALSAVLALPAAVHTYHVELKPHDVRLCEEFWGSQERQRQLYAWGLLLVTYLLPLLVILLSYVRVSVKLRNRVVPGCVTQSQADWDRARRRRTFCLLVVIVVVFAVCWLPLHVFNLLRDLDPHAIDPYAFGLVQLLCHWLAMSSACYNPFIYAWLHDSFREELRKLLVAWPRKIAPHGQNMTVSVVA [I370A]
disrupting interaction | MASSTTRGPRVSDLFSGLPPAVTTPANQSAEASAGNGSVAGADAPAVTPFQSLQLVHQLKGLIVLLYSVVVVVGLVGNCLLVLVIARVRRLHNVTNFLIGNLALSDVLMCTACVPLTLAYAFEPRGWVFGGGLCHLVFFLQPVTVYVSVFTLTTIAVDRYVVLVHPLRRRISLRLSAYAVLAIWALSAVLALPAAVHTYHVELKPHDVRLCEEFWGSQERQRQLYAWGLLLVTYLLPLLVILLSYVRVSVKLRNRVVPGCVTQSQADWDRARRRRTFCLLVVIVVVFAVCWLPLHVFNLLRDLDPHAIDPYAFGLVQLLCHWLAMSSACYNPFIYAWLHDSFREELRKLLVAWPRKIAPHGQNMTVAVVI [S367A]
